Numbering of substitutions follows the chain as printed.
B1: humanized YP7 antibody, IgG format (human IgG1 kappa) (antibody, V domains shown)
VH: EVQLVESGGGLVQPGGSLRLSCAASGFTFNKNAMNWVRQAPGKGLEWVGRIRNKTNNYATYYADSVKARFTISRDDSKNSLYLQMNSLKTEDTAVYYCVAGNSFAYWGQGTLVTVS
VL: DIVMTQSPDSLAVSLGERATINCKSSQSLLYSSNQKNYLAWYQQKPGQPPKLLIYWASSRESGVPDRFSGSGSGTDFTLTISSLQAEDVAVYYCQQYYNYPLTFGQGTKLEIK
notes: also called hYP7; hYP7 IgG
B2: humanized YP9.1b antibody, IgG format (human IgG1 kappa) (antibody, V domains shown)
VH: B1 VH with T28N, K31T, I51V, A68D
VL: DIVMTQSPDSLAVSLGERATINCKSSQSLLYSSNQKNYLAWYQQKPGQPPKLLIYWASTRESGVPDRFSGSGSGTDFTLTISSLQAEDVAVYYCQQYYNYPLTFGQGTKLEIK
notes: also called hYP9.1b; hYP9.1b IgG

Target: T1, Glypican-3 (GPC3) on G1 cells (Homo sapiens, UniProt P51654)
T1 construct: also called GPC3+ cells (G1)
Experiment: flow cytometry on cells
Settings: one partner purified

T1 sequence (P51654 25-580): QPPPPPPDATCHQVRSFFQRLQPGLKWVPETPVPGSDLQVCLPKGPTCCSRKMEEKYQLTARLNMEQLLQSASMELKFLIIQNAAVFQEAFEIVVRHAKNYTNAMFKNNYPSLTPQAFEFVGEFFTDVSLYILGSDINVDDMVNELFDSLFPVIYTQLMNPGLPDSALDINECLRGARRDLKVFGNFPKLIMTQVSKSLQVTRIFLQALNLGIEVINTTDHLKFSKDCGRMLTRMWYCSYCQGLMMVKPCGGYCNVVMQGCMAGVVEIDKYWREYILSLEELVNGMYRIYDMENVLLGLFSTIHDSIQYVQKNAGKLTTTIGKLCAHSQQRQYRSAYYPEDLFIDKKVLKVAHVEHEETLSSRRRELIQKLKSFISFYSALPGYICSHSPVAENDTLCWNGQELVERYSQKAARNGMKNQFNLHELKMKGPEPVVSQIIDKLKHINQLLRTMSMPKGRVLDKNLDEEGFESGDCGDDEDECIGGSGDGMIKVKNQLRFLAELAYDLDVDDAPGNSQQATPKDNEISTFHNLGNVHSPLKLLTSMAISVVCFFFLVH

| Binder | EC50 [pM] |
| --- | --- |
| B1 | 700 |
| B2 | 400 |

From publication PMC5036187 (Scientific Reports, 2016)
